Test results published in article PMC4005678, “Structural basis for Klf4 recognition of methylated DNA”.

Target: Klf4 ZnF1-3 DNA-binding domain (mouse, UniProt Q60793 396-483)
Test: X-ray crystallography (1.85 A); 3 Zn2+; FP: 20 mM Tris-HCl pH 7.5, 150 mM NaCl, 5% (v/v) glycerol, 0.5 mM TCEP, ~22 C; probe 10 nM (WT) or 1 nM (E446A)
Details: protein: recombinant; tags: GST tag removed; N-terminal GPLGS left; blunt

Sequence of Klf4 ZnF1-3 DNA-binding domain (Q60793 396-483): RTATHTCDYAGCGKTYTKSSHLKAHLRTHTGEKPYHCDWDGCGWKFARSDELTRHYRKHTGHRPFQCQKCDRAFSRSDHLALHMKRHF

B1: crystal 10-mer M/M (dsDNA)
DNA 1: GAGGCGTGGC
DNA 2: GCCACGCCTC
modifications: 5mC at position 5 of strand 1 and position 5 of strand 2
**Q.** Does B1 bind?
**A.** binds
